According to publication PMC8310136:

Biological target: NT*MNV VPg (Murine norovirus (MNV), UniProt Q80J95 871-994)
Assay: competition; 100-fold excess over labelled PP9 RNA
Conditions: protein: recombinant, tags: N-terminal His6-StrepII-spidroin NT*-enterokinase site-GGSRS linker, label: none

Row | Binder | binding result | binding result (blunt)
1 | ssDNA competitor (ssDNA) DNA: TATGCGGGCGAAACTTCTGGGAATAGTCCTGACAACCCCTATTGCGATCAGCTCTTTTGCTAGCTCG | no binding | –
2 | dsDNA competitor (dsDNA) DNA 1: TATGCGGGCGAAACTTCTGGGAATAGTCCTGACAACCCCTATTGCGATCAGCTCTTTTGCTAGCTCG DNA 2: CGAGCTAGCAAAAGAGCTGATCGCAATAGGGGTTGTCAGGACTATTCCCAGAAGTTTCGCCCGCATA | – | no binding
